# Reference: IntAct's records for PubMed 18200045
# B1: Epidermal growth factor receptor substrate 15 (Homo sapiens), P42566 (parent)
# chain: MAAAAQLSLTQLSSGNPVYEKYYRQVDTGNTGRVLASDAAAFLKKSGLPDLILGKIWDLADTDGKGILNKQEFFVALRLVACAQNGLEVSLSSLNLAVPPPRFHDTSSPLLISGTSAAELPWAVKPEDKAKYDAIFDSLSPVNGFLSGDKVKPVLLNSKLPVDILGRVWELSDIDHDGMLDRDEFAVAMFLVYCALEKEPVPMSLPPALVPPSKRKTWVVSPAEKAKYDEIFLKTDKDMDGFVSGLEVREIFLKTGLPSTLLAHIWSLCDTKDCGKLSKDQFALAFHLISQKLIKGIDPPHVLTPEMIPPSDRASLQKNIIGSSPVADFSAIKELDTLNNEIVDLQREKNNVEQDLKEKEDTIKQRTSEVQDLQDEVQRENTNLQKLQAQKQQVQELLDELDEQKAQLEEQLKEVRKKCAEEAQLISSLKAELTSQESQISTYEEELAKAREELSRLQQETAELEESVESGKAQLEPLQQHLQDSQQEISSMQMKLMEMKDLENHNSQLNWCSSPHSILVNGATDYCSLSTSSSETANLNEHVEGQSNLESEPIHQESPARSSPELLPSGVTDENEVTTAVTEKVCSELDNNRHSKEEDPFNVDSSSLTGPVADTNLDFFQSDPFVGSDPFKDDPFGKIDPFGGDPFKGSDPFASDCFFRQSTDPFATSSTDPFSAANNSSITSVETLKHNDPFAPGGTVVAASDSATDPFASVFGNESFGGGFADFSTLSKVNNEDPFRSATSSSVSNVVITKNVFEETSVKSEDEPPALPPKIGTPTRPCPLPPGKRSINKLDSPDPFKLNDPFQPFPGNDSPKEKDPEIFCDPFTSATTTTNKEADPSNFANFSAYPSEEDMIEWAKRESEREEEQRLARLNQQEQEDLELAIALSKSEISEA
# partner: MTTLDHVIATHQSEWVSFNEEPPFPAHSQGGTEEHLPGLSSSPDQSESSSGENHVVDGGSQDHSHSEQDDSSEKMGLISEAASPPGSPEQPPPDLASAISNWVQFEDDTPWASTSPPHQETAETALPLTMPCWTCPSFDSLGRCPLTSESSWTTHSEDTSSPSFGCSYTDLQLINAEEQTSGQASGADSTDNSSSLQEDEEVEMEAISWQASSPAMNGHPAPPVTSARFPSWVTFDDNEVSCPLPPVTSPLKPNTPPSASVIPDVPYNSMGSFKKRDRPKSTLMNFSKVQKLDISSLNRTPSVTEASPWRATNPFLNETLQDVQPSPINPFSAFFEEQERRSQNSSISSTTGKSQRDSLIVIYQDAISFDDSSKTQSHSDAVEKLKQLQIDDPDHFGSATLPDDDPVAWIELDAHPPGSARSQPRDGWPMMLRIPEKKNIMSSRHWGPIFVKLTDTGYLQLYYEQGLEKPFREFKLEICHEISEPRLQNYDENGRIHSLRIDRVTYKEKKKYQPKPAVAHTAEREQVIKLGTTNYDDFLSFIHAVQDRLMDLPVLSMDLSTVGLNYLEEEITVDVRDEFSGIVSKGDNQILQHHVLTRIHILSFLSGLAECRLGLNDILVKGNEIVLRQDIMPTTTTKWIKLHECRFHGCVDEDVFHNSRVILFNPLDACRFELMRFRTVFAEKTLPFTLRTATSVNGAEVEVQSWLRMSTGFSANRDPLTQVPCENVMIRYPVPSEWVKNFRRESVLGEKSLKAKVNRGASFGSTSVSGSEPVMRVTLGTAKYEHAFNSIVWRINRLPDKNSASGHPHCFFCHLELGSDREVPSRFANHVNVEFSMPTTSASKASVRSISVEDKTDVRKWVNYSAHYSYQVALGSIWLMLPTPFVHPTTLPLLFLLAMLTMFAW
# Variants of: B1
# Conditions: with ston2_human STON2, Q8WXE9
row,Variant,effect of a mutation on the interaction
1,Y193D,decreasing interaction

# Variants of: B1
# Conditions: with ston2_human STON2, Q8WXE9
# Remark: another data set of the same source
row,Variant,effect of a mutation on the interaction
1,W266A,decreasing interaction

# Variants of: B1
# Conditions: with ston2_human STON2, Q8WXE9
# Remark: another data set of the same source
row,Variant,effect of a mutation on the interaction
1,V154E,decreasing interaction

# Variants of: B1
# Conditions: with ston2_human STON2, Q8WXE9
# Remark: another data set of the same source
row,Variant,effect of a mutation on the interaction
1,V154E,disrupting interaction

# Variants of: B1
# Conditions: with ston2_human STON2, Q8WXE9
# Remark: another data set of the same source
row,Variant,effect of a mutation on the interaction
1,W169A,decreasing interaction

# Variants of: B1
# Conditions: with ston2_human STON2, Q8WXE9
# Remark: another data set of the same source
row,Variant,effect of a mutation on the interaction
1,W169A,disrupting interaction
